Literature values in paper PMC3281059.

Target: actin monomer (UniProt P68133)

- Kd: 600 nM
Substance: WCA domain WCA (from UniProt O00401)
